The numbers were not newly measured in patent US9914774B2, “Notch pathway inhibition” (Genentech, Inc., priority 2014, dated 2018), which cites them from elsewhere.

Like-named read-outs stand apart in the source and are kept apart here.

For data set [1] the following is noted: Phase 1a, patients with solid tumors.
The conditions of data set [2]: first-in-human phase I, advanced solid tumors.

In the case of “59R5: anti-Notch antibody 59R5, described in U.S. Pat. No. 7,919,092”, in data set [1], the patients experienced diarrhea is recorded as 58% and the “patients experiencing grade 3 or higher diarrhea” value is recorded as 14%.

B1: 52M51: anti-Notch1 antibody 52M51, described in U.S. Pat. No. 8,435,513 (antibody, chains of the INN, looked up, V domains shown)
VH: QVQLVQSGAEVKKPGASVKISCKVSGYTLRGYWIEWVRQAPGKGLEWIGQILPGTGRTNYNEKFKGRVTMTADTSTDTAYMELSSLRSEDTAVYYCARFDGNYGYYAMDYWGQGTTVTVSS
VL: QAVVTQEPSLTVSPGGTVTLTCRSSTGAVTTSNYANWFQQKPGQAPRTLIGGTNNRAPGVPARFSGSLLGGKAALTLSGAQPEDEAEYYCALWYSNHWVFGGGTKLTVL
As to B1, in data set [2], the patients experienced diarrhea was 64%.
